Laboratory results taken from article PMC3072279 (Biochemistry, 2011).

Target: the molecule itself
Assay: SEC-MALS

B1: DCAF1 817–1507, C-terminally His6-tagged (domain or fragment)
chain: not shown
- stoichiometry N: 2
